Test results as given in the supplement of paper PMC10065799, “High-throughput profiling of sequence recognition by tyrosine kinases and SH2 domains using bacterial peptide display” (eLife, 2023).

The sequences below were run against Hck (UniProt P08631) (assay: phosphorylation enrichment, bacterial display (enrichment ratio); higher = better substrate or ligand; peptides without Tyr show the background).
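Note: 11-residue human phosphosite peptides and single-mutation variants displayed on the E. coli surface, counted by deep sequencing, each peptide's frequency after selection divided by its frequency in the unselected input library; frequency after pTyr selection over input frequency; kinase dosed for 20-30% of maximal phosphorylation in three min.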

Hck, sequence (P08631 whole entry, looked up): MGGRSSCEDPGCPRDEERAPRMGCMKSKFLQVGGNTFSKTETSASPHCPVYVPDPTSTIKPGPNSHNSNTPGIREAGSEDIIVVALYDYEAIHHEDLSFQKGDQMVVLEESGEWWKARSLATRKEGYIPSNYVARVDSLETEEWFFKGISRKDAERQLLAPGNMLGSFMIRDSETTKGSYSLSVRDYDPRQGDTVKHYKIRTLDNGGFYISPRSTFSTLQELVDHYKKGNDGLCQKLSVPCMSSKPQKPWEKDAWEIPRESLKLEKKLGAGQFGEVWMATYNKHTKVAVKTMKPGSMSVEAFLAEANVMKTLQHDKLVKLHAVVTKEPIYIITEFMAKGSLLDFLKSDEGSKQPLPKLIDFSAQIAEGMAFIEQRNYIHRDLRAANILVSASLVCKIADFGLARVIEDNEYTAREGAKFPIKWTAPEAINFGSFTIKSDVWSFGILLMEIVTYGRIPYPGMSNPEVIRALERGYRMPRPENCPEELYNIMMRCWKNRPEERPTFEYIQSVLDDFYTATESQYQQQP

Going from IRNRDYDDIDD [TTYH2_Y424_T419I] to PSDLLYILDIQ [ITGA2B_Y845], the phosphorylation enrichment rises from 0.515 to 1.57.

First: MDFRSYPREFG [RBM10_Y44_YF]
Second: LARDIYKNDFF [ROS1_Y2110_YF]
The phosphorylation enrichment of the first is lower: 0.388 for the first, 0.599 for the second.

Going from RAADFYSQQMA [GBP6_Y334_YF] to AYRRGYFDEEM [PLEC_Y2971], the phosphorylation enrichment rises from 0.375 to 0.397.

First: SAPDSYIGIGN [SLC38A4_Y27]
Second: LKEIHYPPYTD [ALDH3B2_Y362]
The phosphorylation enrichment of the first is lower: 0.495 for the first, 0.929 for the second.

Going from IRKTEYPFSSE [ATP2C1_Y452_A450T] to EKLQKYYRKNP [EHHADH_Y682_Q685K], the phosphorylation enrichment falls from 0.405 to 0.353.

First: YKIYRYTLNDN [FN1_Y1975_L1974R]
Second: CEETFYTMKMN [MASP2_Y401_V405M]
The phosphorylation enrichment of the first is lower: 0.573 for the first, 1.09 for the second.

Compared with VYLGAYDCFLP [SLC22A5_Y486_R488C], PTTMTYFPHFD [HBA1_Y43_K41M] is lower in phosphorylation enrichment: 5.14 for the first, 0.951 for the second.

Going from KRFRIYHLATS [BRCA2_Y3009_YF] to PPSGEYFGHCG [TRIP6_Y275_Q278H], the phosphorylation enrichment rises from 0.454 to 0.983.

Compared with RLLRGYRQDAY [HLA-A_Y137_F133L], STKPQYQPGEN [SRC_Y530_E527K] is lower in phosphorylation enrichment: 0.645 for the first, 0.361 for the second.

Compared with RRIHSYRGHVW [VHL_Y112_L116V], IDQDKYAVHFI [FLNA_Y2388_R2391H] is lower in phosphorylation enrichment: 0.736 for the first, 0.467 for the second.

First: TLERHYKELQA [SPTBN2_Y834_E835K]
Second: KRGIDYILWHM [FRMD1_Y225_R228W]
The phosphorylation enrichment of the first is lower: 0.375 for the first, 0.536 for the second.

First: KIVQDYLEKFF [MMP8_Y36_T32I_YF]
Second: TKDTIYKQPMF [GBA_Y451_F450I]
The phosphorylation enrichment of the first is lower: 0.773 for the first, 0.8 for the second.

First: IKRIAYEFVEM [ADA_Y84]
Second: EKAEVYGSENE [RIOK2_Y348]
The phosphorylation enrichment of the first is lower: 0.414 for the first, 0.464 for the second.

First: QEVLEYFMKQM [PIK3CA_Y1038_A1035V]
Second: VVEVTYDDVPI [FLNB_Y1308]
The phosphorylation enrichment of the first is lower: 0.95 for the first, 1.82 for the second.

First: ANVKWYRNGRE
Second: HEEDNYIELIP [NWD2_Y566]
The phosphorylation enrichment of the first is lower: 0.484 for the first, 1.02 for the second.

Going from HGQVNYEEFVQ [CALM2_Y139_D134H] to KEDPEYKKKFR [FAM161A_Y278_E273K], the phosphorylation enrichment falls from 1.37 to 0.477.

Sequence GSERDYTFEEL [EIF2S2_Y174_YF] has a phosphorylation enrichment of 0.505.

These sequences were tested against Jak2 (UniProt O60674) in the same assay as above.
Jak2, sequence (O60674 whole entry, looked up): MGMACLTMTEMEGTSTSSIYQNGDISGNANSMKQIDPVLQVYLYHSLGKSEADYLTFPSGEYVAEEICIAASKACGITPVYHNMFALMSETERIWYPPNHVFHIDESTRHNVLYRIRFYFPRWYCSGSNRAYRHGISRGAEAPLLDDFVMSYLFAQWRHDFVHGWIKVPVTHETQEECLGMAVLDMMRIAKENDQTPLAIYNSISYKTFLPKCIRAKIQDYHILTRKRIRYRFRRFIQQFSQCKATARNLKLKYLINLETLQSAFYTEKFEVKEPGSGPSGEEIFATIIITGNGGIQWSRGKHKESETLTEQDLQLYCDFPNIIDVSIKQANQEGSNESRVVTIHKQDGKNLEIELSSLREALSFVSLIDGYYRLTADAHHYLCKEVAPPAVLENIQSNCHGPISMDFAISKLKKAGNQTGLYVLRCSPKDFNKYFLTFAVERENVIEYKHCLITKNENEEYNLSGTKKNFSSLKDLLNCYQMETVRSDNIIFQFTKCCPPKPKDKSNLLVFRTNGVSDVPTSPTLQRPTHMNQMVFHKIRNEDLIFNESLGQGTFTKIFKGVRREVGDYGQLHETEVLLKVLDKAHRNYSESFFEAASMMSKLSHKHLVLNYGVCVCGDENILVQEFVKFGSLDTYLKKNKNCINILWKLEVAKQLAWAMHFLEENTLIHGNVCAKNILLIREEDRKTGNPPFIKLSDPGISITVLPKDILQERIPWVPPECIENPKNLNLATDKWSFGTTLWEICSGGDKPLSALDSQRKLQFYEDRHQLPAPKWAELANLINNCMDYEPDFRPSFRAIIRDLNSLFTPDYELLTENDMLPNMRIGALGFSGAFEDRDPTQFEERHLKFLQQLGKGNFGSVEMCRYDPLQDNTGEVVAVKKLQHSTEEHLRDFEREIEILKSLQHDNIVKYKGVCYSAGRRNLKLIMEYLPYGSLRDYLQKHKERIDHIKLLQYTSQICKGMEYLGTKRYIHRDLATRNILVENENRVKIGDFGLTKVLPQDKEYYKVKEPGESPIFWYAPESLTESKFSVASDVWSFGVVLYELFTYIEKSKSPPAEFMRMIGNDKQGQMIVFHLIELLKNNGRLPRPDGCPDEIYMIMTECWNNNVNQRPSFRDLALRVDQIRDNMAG

Compared with IRNRDYDDIDD [TTYH2_Y424_T419I], PSDLLYILDIQ [ITGA2B_Y845] is higher in phosphorylation enrichment: 0.676 for the first, 2.24 for the second.

Going from MDFRSYPREFG [RBM10_Y44_YF] to LARDIYKNDFF [ROS1_Y2110_YF], the phosphorylation enrichment rises from 0.63 to 2.38.

Compared with RAADFYSQQMA [GBP6_Y334_YF], AYRRGYFDEEM [PLEC_Y2971] is lower in phosphorylation enrichment: 1.16 for the first, 0.849 for the second.

Compared with SAPDSYIGIGN [SLC38A4_Y27], LKEIHYPPYTD [ALDH3B2_Y362] is higher in phosphorylation enrichment: 0.739 for the first, 1.01 for the second.

Compared with IRKTEYPFSSE [ATP2C1_Y452_A450T], EKLQKYYRKNP [EHHADH_Y682_Q685K] is higher in phosphorylation enrichment: 0.599 for the first, 0.694 for the second.

Compared with YKIYRYTLNDN [FN1_Y1975_L1974R], CEETFYTMKMN [MASP2_Y401_V405M] is higher in phosphorylation enrichment: 0.905 for the first, 1.83 for the second.

First: VYLGAYDCFLP [SLC22A5_Y486_R488C]
Second: PTTMTYFPHFD [HBA1_Y43_K41M]
The phosphorylation enrichment of the first is lower: 1.28 for the first, 1.61 for the second.

Compared with KRFRIYHLATS [BRCA2_Y3009_YF], PPSGEYFGHCG [TRIP6_Y275_Q278H] is higher in phosphorylation enrichment: 0.439 for the first, 0.999 for the second.

Going from RLLRGYRQDAY [HLA-A_Y137_F133L] to STKPQYQPGEN [SRC_Y530_E527K], the phosphorylation enrichment falls from 0.802 to 0.63.

Going from RRIHSYRGHVW [VHL_Y112_L116V] to IDQDKYAVHFI [FLNA_Y2388_R2391H], the phosphorylation enrichment falls from 1.35 to 0.801.

First: TLERHYKELQA [SPTBN2_Y834_E835K]
Second: KRGIDYILWHM [FRMD1_Y225_R228W]
The phosphorylation enrichment of the first is lower: 0.704 for the first, 1.06 for the second.

Going from KIVQDYLEKFF [MMP8_Y36_T32I_YF] to TKDTIYKQPMF [GBA_Y451_F450I], the phosphorylation enrichment falls from 1.02 to 0.907.

First: IKRIAYEFVEM [ADA_Y84]
Second: EKAEVYGSENE [RIOK2_Y348]
The phosphorylation enrichment of the first is lower: 0.701 for the first, 0.911 for the second.

First: QEVLEYFMKQM [PIK3CA_Y1038_A1035V]
Second: VVEVTYDDVPI [FLNB_Y1308]
The phosphorylation enrichment of the first is higher: 2.27 for the first, 1.1 for the second.

Going from ANVKWYRNGRE to HEEDNYIELIP [NWD2_Y566], the phosphorylation enrichment rises from 0.665 to 2.21.

Compared with HGQVNYEEFVQ [CALM2_Y139_D134H], KEDPEYKKKFR [FAM161A_Y278_E273K] is lower in phosphorylation enrichment: 1.24 for the first, 1.02 for the second.

Work on GSERDYTFEEL [EIF2S2_Y174_YF] yielded a phosphorylation enrichment of 1.07.

Each sequence was assayed against MERTK (UniProt Q12866) in the same assay as above.
MERTK, sequence (Q12866 whole entry, looked up): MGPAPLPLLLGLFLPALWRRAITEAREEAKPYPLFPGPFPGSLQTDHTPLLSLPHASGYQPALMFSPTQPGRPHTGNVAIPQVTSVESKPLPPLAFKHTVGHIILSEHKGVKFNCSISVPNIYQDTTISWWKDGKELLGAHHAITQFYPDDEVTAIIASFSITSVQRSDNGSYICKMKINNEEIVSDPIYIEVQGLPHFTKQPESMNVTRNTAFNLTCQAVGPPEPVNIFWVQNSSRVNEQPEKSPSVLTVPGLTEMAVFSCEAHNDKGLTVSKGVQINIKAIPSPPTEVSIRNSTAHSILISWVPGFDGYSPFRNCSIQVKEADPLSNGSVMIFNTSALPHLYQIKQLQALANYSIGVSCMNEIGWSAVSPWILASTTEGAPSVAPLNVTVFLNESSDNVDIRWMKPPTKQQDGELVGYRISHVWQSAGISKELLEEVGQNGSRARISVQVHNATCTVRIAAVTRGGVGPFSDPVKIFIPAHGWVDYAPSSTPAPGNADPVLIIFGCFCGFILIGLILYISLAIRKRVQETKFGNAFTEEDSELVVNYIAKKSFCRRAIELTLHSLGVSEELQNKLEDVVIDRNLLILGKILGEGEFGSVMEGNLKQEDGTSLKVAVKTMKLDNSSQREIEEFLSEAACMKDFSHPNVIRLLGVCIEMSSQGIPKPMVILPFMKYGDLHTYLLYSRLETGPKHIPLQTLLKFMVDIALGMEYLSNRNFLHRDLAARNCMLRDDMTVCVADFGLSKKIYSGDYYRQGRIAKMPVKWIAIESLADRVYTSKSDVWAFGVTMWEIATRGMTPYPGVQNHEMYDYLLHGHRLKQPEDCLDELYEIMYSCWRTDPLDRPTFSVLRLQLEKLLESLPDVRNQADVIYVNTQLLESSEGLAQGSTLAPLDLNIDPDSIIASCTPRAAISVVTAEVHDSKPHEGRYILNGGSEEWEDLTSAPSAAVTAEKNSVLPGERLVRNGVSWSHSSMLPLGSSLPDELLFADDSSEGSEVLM

Compared with IRNRDYDDIDD [TTYH2_Y424_T419I], PSDLLYILDIQ [ITGA2B_Y845] is higher in phosphorylation enrichment: 0.541 for the first, 2.82 for the second.

Compared with MDFRSYPREFG [RBM10_Y44_YF], LARDIYKNDFF [ROS1_Y2110_YF] is higher in phosphorylation enrichment: 0.352 for the first, 1.57 for the second.

First: RAADFYSQQMA [GBP6_Y334_YF]
Second: AYRRGYFDEEM [PLEC_Y2971]
The phosphorylation enrichment of the first is higher: 0.56 for the first, 0.412 for the second.

Compared with SAPDSYIGIGN [SLC38A4_Y27], LKEIHYPPYTD [ALDH3B2_Y362] is lower in phosphorylation enrichment: 0.59 for the first, 0.573 for the second.

Going from IRKTEYPFSSE [ATP2C1_Y452_A450T] to EKLQKYYRKNP [EHHADH_Y682_Q685K], the phosphorylation enrichment rises from 0.348 to 0.394.

Compared with YKIYRYTLNDN [FN1_Y1975_L1974R], CEETFYTMKMN [MASP2_Y401_V405M] is higher in phosphorylation enrichment: 0.331 for the first, 0.829 for the second.

Going from VYLGAYDCFLP [SLC22A5_Y486_R488C] to PTTMTYFPHFD [HBA1_Y43_K41M], the phosphorylation enrichment falls from 7.36 to 0.802.

Compared with KRFRIYHLATS [BRCA2_Y3009_YF], PPSGEYFGHCG [TRIP6_Y275_Q278H] is higher in phosphorylation enrichment: 0.38 for the first, 0.529 for the second.

First: RLLRGYRQDAY [HLA-A_Y137_F133L]
Second: STKPQYQPGEN [SRC_Y530_E527K]
The phosphorylation enrichment of the first is higher: 0.694 for the first, 0.395 for the second.

Compared with RRIHSYRGHVW [VHL_Y112_L116V], IDQDKYAVHFI [FLNA_Y2388_R2391H] is lower in phosphorylation enrichment: 1.12 for the first, 0.388 for the second.

First: TLERHYKELQA [SPTBN2_Y834_E835K]
Second: KRGIDYILWHM [FRMD1_Y225_R228W]
The phosphorylation enrichment of the first is higher: 0.571 for the first, 0.548 for the second.

Going from KIVQDYLEKFF [MMP8_Y36_T32I_YF] to TKDTIYKQPMF [GBA_Y451_F450I], the phosphorylation enrichment falls from 0.512 to 0.499.

First: IKRIAYEFVEM [ADA_Y84]
Second: EKAEVYGSENE [RIOK2_Y348]
The phosphorylation enrichment of the first is lower: 0.388 for the first, 0.445 for the second.

First: QEVLEYFMKQM [PIK3CA_Y1038_A1035V]
Second: VVEVTYDDVPI [FLNB_Y1308]
The phosphorylation enrichment of the first is lower: 0.68 for the first, 0.688 for the second.

Compared with ANVKWYRNGRE, HEEDNYIELIP [NWD2_Y566] is higher in phosphorylation enrichment: 0.468 for the first, 1.33 for the second.

Compared with HGQVNYEEFVQ [CALM2_Y139_D134H], KEDPEYKKKFR [FAM161A_Y278_E273K] is lower in phosphorylation enrichment: 0.92 for the first, 0.433 for the second.

Work on GSERDYTFEEL [EIF2S2_Y174_YF] yielded a phosphorylation enrichment of 0.479.

What follows are sequences tested on c-Abl (mouse) in the same assay as above.

First: IRNRDYDDIDD [TTYH2_Y424_T419I]
Second: PSDLLYILDIQ [ITGA2B_Y845]
The phosphorylation enrichment of the first is lower: 0.649 for the first, 1.17 for the second.

Going from MDFRSYPREFG [RBM10_Y44_YF] to LARDIYKNDFF [ROS1_Y2110_YF], the phosphorylation enrichment rises from 0.455 to 1.31.

Going from RAADFYSQQMA [GBP6_Y334_YF] to AYRRGYFDEEM [PLEC_Y2971], the phosphorylation enrichment falls from 1.04 to 0.54.

First: SAPDSYIGIGN [SLC38A4_Y27]
Second: LKEIHYPPYTD [ALDH3B2_Y362]
The phosphorylation enrichment of the first is lower: 0.594 for the first, 0.763 for the second.

Compared with IRKTEYPFSSE [ATP2C1_Y452_A450T], EKLQKYYRKNP [EHHADH_Y682_Q685K] is higher in phosphorylation enrichment: 0.549 for the first, 0.699 for the second.

Going from YKIYRYTLNDN [FN1_Y1975_L1974R] to CEETFYTMKMN [MASP2_Y401_V405M], the phosphorylation enrichment rises from 0.688 to 1.3.

Going from VYLGAYDCFLP [SLC22A5_Y486_R488C] to PTTMTYFPHFD [HBA1_Y43_K41M], the phosphorylation enrichment falls from 1.77 to 0.859.

Compared with KRFRIYHLATS [BRCA2_Y3009_YF], PPSGEYFGHCG [TRIP6_Y275_Q278H] is higher in phosphorylation enrichment: 0.391 for the first, 0.904 for the second.

Going from RLLRGYRQDAY [HLA-A_Y137_F133L] to STKPQYQPGEN [SRC_Y530_E527K], the phosphorylation enrichment falls from 0.67 to 0.519.

Going from RRIHSYRGHVW [VHL_Y112_L116V] to IDQDKYAVHFI [FLNA_Y2388_R2391H], the phosphorylation enrichment falls from 0.848 to 0.734.

First: TLERHYKELQA [SPTBN2_Y834_E835K]
Second: KRGIDYILWHM [FRMD1_Y225_R228W]
The phosphorylation enrichment of the first is lower: 0.612 for the first, 0.788 for the second.

First: KIVQDYLEKFF [MMP8_Y36_T32I_YF]
Second: TKDTIYKQPMF [GBA_Y451_F450I]
The phosphorylation enrichment of the first is lower: 0.956 for the first, 17.4 for the second.

Compared with IKRIAYEFVEM [ADA_Y84], EKAEVYGSENE [RIOK2_Y348] is higher in phosphorylation enrichment: 0.599 for the first, 0.609 for the second.

Compared with QEVLEYFMKQM [PIK3CA_Y1038_A1035V], VVEVTYDDVPI [FLNB_Y1308] is lower in phosphorylation enrichment: 1.31 for the first, 0.805 for the second.

Compared with ANVKWYRNGRE, HEEDNYIELIP [NWD2_Y566] is higher in phosphorylation enrichment: 0.479 for the first, 1.89 for the second.

Going from HGQVNYEEFVQ [CALM2_Y139_D134H] to KEDPEYKKKFR [FAM161A_Y278_E273K], the phosphorylation enrichment falls from 0.911 to 0.824.

Work on GSERDYTFEEL [EIF2S2_Y174_YF] yielded a phosphorylation enrichment of 0.738.
